Measurements: the supplement of paper PMC5998384

How the values were obtained:
[1] = test system: HeLa Kyoto; assay: solubility in G1/S (NP-40 vs SDS abundance) (log2 ratio); higher = more soluble; details: cell cycle stage: G1/S
[2] = test system: HeLa Kyoto; assay: solubility change mitosis vs G1/S (difference of NP-40 vs SDS log2 ratios) (log2 ratio difference); higher = more soluble in mitosis
[3] = test system: HeLa Kyoto; assay: thermal stability score vs G1/S (z-score of summed log2 fold changes over temperatures); higher = more thermally stable than in G1/S
[4] = cell cycle stage: early G1 (4.5 h after nocodazole release)
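For solubility change mitosis vs G1/S (difference of NP-40 vs SDS log2 ratios) in this document: synchronized HeLa Kyoto cells (double thymidine block for G1/S, nocodazole release for mitosis), protein amounts in NP-40 versus SDS lysates quantified by mass spectrometry, three biological replicates.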
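For solubility in G1/S (NP-40 vs SDS abundance) in this document: HeLa Kyoto cells arrested at G1/S by double thymidine block, proteins quantified by TMT10plex mass spectrometry in mild NP-40 versus SDS extracts, three biological replicates.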
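For thermal stability score vs G1/S (z-score of summed log2 fold changes over temperatures) in this document: synchronized HeLa Kyoto cells, proteins quantified by TMT10plex mass spectrometry, three biological replicates, mitosis taken 0.5 h after nocodazole release, G1/S directly after double thymidine block.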

“MASADKNGGSVSSVSSSRLQSRKPPNLSITIPPPEKETQAPGEQDSMLPEGFQNRRLKKSQPRTWAAHTTACPPSFLPKRKNPAYLKSVSLQEPRSRWQESSEKRPGFRRQASLSQSIRKGAAQWFGVSGDWEGQRQQWQRRSLHHCSMRYGRLKASCQRDLELPSQEAPSFQGTESPKPCKMPKIVDPLARGRAFRHPEEMDRPHAPHPPLTPGVLSLTSFTSVRSGYSHLPRRKRMSVAHMSLQAAAALLKGRSVLDATGQRCRVVKRSFAFPSFLEEDVVDGADTFDSSFFSKEEMSSMPDDVFESPPLSASYFRGIPHSASPVSPDGVQIPLKEYGRAPVPGPRRGKRIASKVKHFAFDRKKRHYGLGVVGNWLNRSYRRSISSTVQRQLESFDSHRPYFTYWLTFVHVIITLLVICTYGIAPVGFAQHVTTQLVLRNKGVYESVKYIQQENFWVGPSSIDLIHLGAKFSPCIRKDGQIEQLVLRERDLERDSGCCVQNDHSGCIQTQRKDCSETLATFVKWQDDTGPPMDKSDLGQKRTSGAVCHQDPRTCEEPASSGAHIWPDDITKWPICTEQARSNHTGFLHMDCEIKGRPCCIGTKGSCEITTREYCEFMHGYFHEEATLCSQVHCLDKVCGLLPFLNPEVPDQFYRLWLSLFLHAGVVHCLVSVVFQMTILRDLEKLAGWHRIAIIFILSGITGNLASAIFLPYRAEVGPAGSQFGLLACLFVELFQSWPLLERPWKAFLNLSAIVLFLFICGLLPWIDNIAHIFGFLSGLLLAFAFLPYITFGTSDKYRKRALILVSLLAFAGLFAALVLWLYIYPINWPWIEHLTCFPFTSRFCEKYELDQVLH [RHBDF2]” was tested, and the “solubility in G1/S (log2)” value [1] was -0.177, the “solubility change mitosis (log2)” value [2] was 0.063 and the thermal stability score [3, 4] was -2.24. It also gave a thermal stability score ([3]; cell cycle stage: mitosis) of -2.01.

“MNLAEICDNAKKGREYALLGNYDSSMVYYQGVMQQIQRHCQSVRDPAIKGKWQQVRQELLEEYEQVKSIVSTLESFKIDKPPDFPVSCQDEPFRDPAVWPPPVPAEHRAPPQIRRPNREVRPLRKEMAGVGARGPVGRAHPISKSEKPSTSRDKDYRARGRDDKGRKNMQDGASDGEMPKFDGAGYDKDLVEALERDIVSRNPSIHWDDIADLEEAKKLLREAVVLPMWMPDFFKGIRRPWKGVLMVGPPGTGKTMLAKAVATECGTTFFNVSSSTLTSKYRGESEKLVRLLFEMARFYAPTTIFIDEIDSICSRRGTSDEHEASRRVKSELLIQMDGVGGALENDDPSKMVMVLAATNFPWDIDEALRRRLEKRIYIPLPTAKGRAELLKINLREVELDPDIQLEDIAEKIEGYSGADITNVCRDASLMAMRRRINGLSPEEIRALSKEELQMPVTKGDFELALKKIAKSVSAADLEKYEKWMVEFGSA [KATNAL1]” was tested, and the “solubility in G1/S (log2)” value [1] was 0.0559, the “solubility change mitosis (log2)” value [2] was 0.119 and the thermal stability score [3, 4] was 1.07. The thermal stability score ([3]; cell cycle stage: mitosis) was 0.457.

With “MERRSRRKSRRNGRSTAGKAAATQPAKSPGAQLWLFPSAAGLHRALLRRVEVTRQLCCSPGRLAVLERGGAGVQVHQLLAGSGGARTPKCIKLGKNMKIHSVDQGAEHMLILSSDGKPFEYDNYSMKHLRFESILQEKKIIQITCGDYHSLALSKGGELFAWGQNLHGQLGVGRKFPSTTTPQIVEHLAGVPLAQISAGEAHSMALSMSGNIYSWGKNECGQLGLGHTESKDDPSLIEGLDNQKVEFVACGGSHSALLTQDGLLFTFGAGKHGQLGHNSTQNELRPCLVAELVGYRVTQIACGRWHTLAYVSDLGKVFSFGSGKDGQLGNGGTRDQLMPLPVKVSSSEELKLESHTSEKELIMIAGGNQSILLWIKKENSYVNLKRTIPTLNEGTVKRWIADVETKRWQSTKREIQEIFSSPACLTGSFLRKRRTTEMMPVYLDLNKARNIFKELTQKDWITNMITTCLKDNLLKRLPFHSPPQEALEIFFLLPECPMMHISNNWESLVVPFAKVVCKMSDQSSLVLEEYWATLQESTFSKLVQMFKTAVICQLDYWDESAEENGNVQALLEMLKKLHRVNQVKCQLPESIFQVDELLHRLNFFVEVCRRYLWKMTVDASENVQCCVIFSHFPFIFNNLSKIKLLHTDTLLKIESKKHKAYLRSAAIEEERESEFALRPTFDLTVRRNHLIEDVLNQLSQFENEDLRKELWVSFSGEIGYDLGGVKKEFFYCLFAEMIQPEYGMFMYPEGASCMWFPVKPKFEKKRYFFFGVLCGLSLFNCNVANLPFPLALFKKLLDQMPSLEDLKELSPDLGKNLQTLLDDEGDNFEEVFYIHFNVHWDRNDTNLIPNGSSITVNQTNKRDYVSKYINYIFNDSVKAVYEEFRRGFYKMCDEDIIKLFHPEELKDVIVGNTDYDWKTFEKNARYEPGYNSSHPTIVMFWKAFHKLTLEEKKKFLVFLTGTDRLQMKDLNNMKITFCCPESWNERDPIRALTCFSVLFLPKYSTMETVEEALQEAINNNRGFG [HERC5]” the “solubility in G1/S (log2)” value [1] was -1.44, the “solubility change mitosis (log2)” value [2] was 0.525 and the thermal stability score [3, 4] was -0.386. The thermal stability score ([3]; cell cycle stage: mitosis) was -1.53.

In the case of “MEASLGIQMDEPMAFSPQRDRFQAEGSLKKNEQNFKLAGVKKDIEKLYEAVPQLSNVFKIEDKIGEGTFSSVYLATAQLQVGPEEKIALKHLIPTSHPIRIAAELQCLTVAGGQDNVMGVKYCFRKNDHVVIAMPYLEHESFLDILNSLSFQEVREYMLNLFKALKRIHQFGIVHRDVKPSNFLYNRRLKKYALVDFGLAQGTHDTKIELLKFVQSEAQQERCSQNKSHIITGNKIPLSGPVPKELDQQSTTKASVKRPYTNAQIQIKQGKDGKEGSVGLSVQRSVFGERNFNIHSSISHESPAVKLMKQSKTVDVLSRKLATKKKAISTKVMNSAVMRKTASSCPASLTCDCYATDKVCSICLSRRQQVAPRAGTPGFRAPEVLTKCPNQTTAIDMWSAGVIFLSLLSGRYPFYKASDDLTALAQIMTIRGSRETIQAAKTFGKSILCSKEVPAQDLRKLCERLRGMDSSTPKLTSDIQGHASHQPAISEKTDHKASCLVQTPPGQYSGNSFKKGDSNSCEHCFDEYNTNLEGWNEVPDEAYDLLDKLLDLNPASRITAEEALLHPFFKDMSL [CDC7]”, the “solubility in G1/S (log2)” value [1] is reported as -0.0102, the “solubility change mitosis (log2)” value [2] is reported as 0.0299 and the thermal stability score [3, 4] is reported as 2.43. The thermal stability score ([3]; cell cycle stage: mitosis) was 2.74.

For “MATPDVSVHMEEVVVVTTPDTAVDGSGVEGVKTVLVTTNLAPHGGDLTEDNMETENAAAAAAAAFTASSQLKEAVLVKMAEEGENLEAEIVYPITCGDSRANLIWRKFVCPGINVKCVQYDEHVISPKEFVHLAGKSTLKDWKRAIRMNGIMLRKIMDSGELDFYQHDKVCSNTCRSTKIDLSGARVSLSSPTSAEYIPLTPAAADVNGSPATITIETCEDPGDWTAAIGDDTFTFWRGLKDAGLLDEVIQEFHQELVETMRGLQQRVQDPPLQLRDAVLLNNIVQNFGMLDLVKKVLASHKCQMDRSREQYARDLAALEQQCDEHRRRAKELKHKSQHLSNVLMTLTPVSLPPPVKRPRLARATSGPAAMASQVLTQSAQLALGPGVPVPQLTSVPLGKVVSTLPSTVLGKGSLQAPPASSPASPLLGGYTVLASSGSTYPSTVEIHPDASSLTVLSTAAVQDGSTVFKVVSPLQLLTLPGLGPTLQNVAQASPGSSTIVTVPAGAAPGPEEHTATIEVAAMAEDHERK [GMEB2]”, the “solubility in G1/S (log2)” value [1] was -0.0692, the “solubility change mitosis (log2)” value [2] was 0.0606 and the thermal stability score [3, 4] was 0.359. It also gave a thermal stability score ([3]; cell cycle stage: mitosis) of 0.761.

With NHSL1 the “solubility in G1/S (log2)” value [1] was -0.0561, the “solubility change mitosis (log2)” value [2] was -0.0684 and the thermal stability score [3, 4] was 0.447. For the same substance, the thermal stability score ([3]; cell cycle stage: mitosis) was 1.09.

In the case of “MSSILPFTPPIVKRLLGWKKGEQNGQEEKWCEKAVKSLVKKLKKTGQLDELEKAITTQNVNTKCITIPRSLDGRLQVSHRKGLPHVIYCRLWRWPDLHSHHELRAMELCEFAFNMKKDEVCVNPYHYQRVETPVLPPVLVPRHTEIPAEFPPLDDYSHSIPENTNFPAGIEPQSNIPETPPPGYLSEDGETSDHQMNHSMDAGSPNLSPNPMSPAHNNLDLQPVTYCEPAFWCSISYYELNQRVGETFHASQPSMTVDGFTDPSNSERFCLGLLSNVNRNAAVELTRRHIGRGVRLYYIGGEVFAECLSDSAIFVQSPNCNQRYGWHPATVCKIPPGCNLKIFNNQEFAALLAQSVNQGFEAVYQLTRMCTIRMSFVKGWGAEYRRQTVTSTPCWIELHLNGPLQWLDKVLTQMGSPSIRCSSVS [SMAD3]”, the “solubility in G1/S (log2)” value [1] is reported as -0.184, the “solubility change mitosis (log2)” value [2] is reported as 0.0397 and the thermal stability score [3, 4] is reported as -0.574. For the same substance, the thermal stability score ([3]; cell cycle stage: mitosis) was -1.15.

In the case of “MPEESSPRRTPQSIPYQDLPHLVNADGQYLFCRYWKPTGTPKALIFVSHGAGEHSGRYEELARMLMGLDLLVFAHDHVGHGQSEGERMVVSDFHVFVRDVLQHVDSMQKDYPGLPVFLLGHSMGGAIAILTAAERPGHFAGMVLISPLVLANPESATTFKVLAAKVLNLVLPNLSLGPIDSSVLSRNKTEVDIYNSDPLICRAGLKVCFGIQLLNAVSRVERALPKLTVPFLLLQGSADRLCDSKGAYLLMELAKSQDKTLKIYEGAYHVLHKELPEVTNSVFHEINMWVSQRTATAGTASPP [MGLL]”, the “solubility in G1/S (log2)” value [1] is reported as 0.347, the “solubility change mitosis (log2)” value [2] is reported as -0.16 and the thermal stability score [3, 4] is reported as 0.0154. The thermal stability score ([3]; cell cycle stage: mitosis) was -0.539.

With PPL the “solubility in G1/S (log2)” value [1] was -0.342, the “solubility change mitosis (log2)” value [2] was 0.304 and the thermal stability score [3, 4] was -0.748. For the same substance, the thermal stability score ([3]; cell cycle stage: mitosis) was 1.36.

With “MSGPLEGADGGGDPRPGESFCPGGVPSPGPPQHRPCPGPSLADDTDANSNGSSGNESNGHESRGASQRSSHSSSSGNGKDSALLETTESSKSTNSQSPSPPSSSIAYSLLSASSEQDNPSTSGCSSEQSARARTQKELMTALRELKLRLPPERRGKGRSGTLATLQYALACVKQVQANQEYYQQWSLEEGEPCSMDMSTYTLEELEHITSEYTLQNQDTFSVAVSFLTGRIVYISEQAAVLLRCKRDVFRGTRFSELLAPQDVGVFYGSTAPSRLPTWGTGASAGSGLRDFTQEKSVFCRIRGGPDRDPGPRYQPFRLTPYVTKIRVSDGAPAQPCCLLIAERIHSGYEAPRIPPDKRIFTTRHTPSCLFQDVDERAAPLLGYLPQDLLGAPVLLFLHPEDRPLMLAIHKKILQLAGQPFDHSPIRFCARNGEYVTMDTSWAGFVHPWSRKVAFVLGRHKVRTAPLNEDVFTPPAPSPAPSLDTDIQELSEQIHRLLLQPVHSPSPTGLCGVGAVTSPGPLHSPGSSSDSNGGDAEGPGPPAPVTFQQICKDVHLVKHQGQQLFIESRARPQSRPRLPATGTFKAKALPCQSPDPELEAGSAPVQAPLALVPEEAERKEASSCSYQQINCLDSILRYLESCNLPSTTKRKCASSSSYTTSSASDDDRQRTGPVSVGTKKDPPSAALSGEGATPRKEPVVGGTLSPLALANKAESVVSVTSQCSFSSTIVHVGDKKPPESDIIMMEDLPGLAPGPAPSPAPSPTVAPDPAPDAYRPVGLTKAVLSLHTQKEEQAFLSRFRDLGRLRGLDSSSTAPSALGERGCHHGPAPPSRRHHCRSKAKRSRHHQNPRAEAPCYVSHPSPVPPSTPWPTPPATTPFPAVVQPYPLPVFSPRGGPQPLPPAPTSVPPAAFPAPLVTPMVALVLPNYLFPTPSSYPYGALQTPAEGPPTPASHSPSPSLPALAPSPPHRPDSPLFNSRCSSPLQLNLLQLEELPRAEGAAVAGGPGSSAGPPPPSAEAAEPEARLAEVTESSNQDALSGSSDLLELLLQEDSRSGTGSAASGSLGSGLGSGSGSGSHEGGSTSASITRSSQSSHTSKYFGSIDSSEAEAGAARGGAEPGDQVIKYVLQDPIWLLMANADQRVMMTYQVPSRDMTSVLKQDRERLRAMQKQQPRFSEDQRRELGAVHSWVRKGQLPRALDVMACVDCGSSTQDPGHPDDPLFSELDGLGLEPMEEGGGEQGSSGGGSGEGEGCEEAQGGAKASSSQDLAMEEEEEGRSSSSPALPTAGNCTS [PER1]” the “solubility in G1/S (log2)” value [1] was 0.0364, the “solubility change mitosis (log2)” value [2] was -0.183 and the thermal stability score [3, 4] was 0.55. It also gave a thermal stability score ([3]; cell cycle stage: mitosis) of 0.377.

For EML1, the “solubility in G1/S (log2)” value [1] was -0.0717, the “solubility change mitosis (log2)” value [2] was -0.126 and the thermal stability score [3, 4] was 0.361. The thermal stability score ([3]; cell cycle stage: mitosis) was 0.0361.

CELSR1 was tested, and the “solubility in G1/S (log2)” value [1] was -0.413, the “solubility change mitosis (log2)” value [2] was -0.0398 and the thermal stability score [3, 4] was -1.99. The thermal stability score ([3]; cell cycle stage: mitosis) was -1.59.
